Data published in publication PMC8946217, “Selective Targeting of Protein Kinase C (PKC)-θ Nuclear Translocation Reduces Mesenchymal Gene Signatures and Reinvigorates Dysfunctional CD8^+ T Cells in Immunotherapy-Resistant and Metastatic Cancers” (Cancers, 2022).

Target: biotinylated GST-importin α2 (UniProt P52293 1-529, biotinylated)
Test: AlphaScreen or HTRF; about 30 nM His6-PKC-θ and increasing concentrations of biotinylated GST-importins; in triplicate; three parameter sigmoidal curves fitted; quenched values in the hooking zone excluded
Conditions: both partners purified

- Kd: 2.75 nM
B1: His6-PKC-θ (protein kinase C theta) (enzyme)
chain: MSPFLRIGLSNFDCGSCQSCQGEAVNPYCAVLVKEYVESENGQMYIQKKPTMYPPWDSTFDAHINKGRVMQIIVKGKNVDLISETTVELYSLAERCRKNNGKTEIWLELKPQGRMLMNARYFLEMSDTKDMNEFETEGFFALHQRRGAIKQAKVHHVKCHEFTATFFPQPTFCSVCHEFVWGLNKQGYQCRQCNAAIHKKCIDKVIAKCTGSAINSRETMFHKERFKIDMPHRFKVYNYKSPTFCEHCGTLLWGLARQGLKCDACGMNVHHRCQTKVANLCGINQKLMAEALAMIESTQQARCLRDTEQIFREGPVEIGLPCSIKNEARPPCLPTPGKREPQGISWESPLDEVDKMCHLPEPELNKERPSLQIKLKIEDFILHKMLGKGSFGKVFLAEFKKTNQFFAIKALKKDVVLMDDDVECTMVEKRVLSLAWEHPFLTHMFCTFQTKENLFFVMEYLNGGDLMYHIQSCHKFDLSRATFYAAEIILGLQFLHSKGIVYRDLKLDNILLDKDGHIKIADFGMCKENMLGDAKTNTFCGTPDYIAPEILLGQKYNHSVDWWSFGVLLYEMLIGQSPFHGQDEEELFHSIRMDNPFYPRWLEKEAKDLLVKLFVREPEKRLGVRGDIRQHPLFREINWEELERKEIDPPFRPKVKSPFDCSNFDKEFLNEKPRLSFADRALINSMDQNMFRNFSFMNPGMERLIS
notes: protein kinase C theta (PKC-θ); also called recombinant purified His6-PKC-θ; source: recombinant, purified
